Data: publication PMC9425028, “The complex formation of MASP-3 with pattern recognition molecules of the lectin complement pathway retains MASP-3 in the circulation” (Frontiers in Immunology, 2022)

Assays:
Assay in all cases: ELISA; sandwich ELISA: 10 ug each of rmMASP-3-PA and rmMASP-3-ALFA mixed, dialysed against TBS/10 mM EDTA 24 h at 4°C, then against TBS/5 mM CaCl2 24 h at 4°C; 0.14 uM of each, serially diluted in 20% Blocking One in TBS/Ca; captured on anti-PA tag antibody, 30 min room temperature; detected with HRP-conjugated anti-ALFA nanobody
Settings in all cases: both partners purified
[1] = target: T1, H218A mutant recombinant mouse MASP-3 fused with PA-tag (mouse, UniProt P98064-2 25-733, H218A)
T1 construct: Made from the pCAG-Bsd PA tag-C/WT rmMASP-3 plasmid by site-directed mutagenesis; also called H218A rmMASP-3-PA; mutant rmMASP-3-PA; source: CHO cells, transfected, culture supernatant, purified (anti-PA tag antibody beads); not shown: PA tag (human podoplanin dodecapeptide), C-terminal, kept
T1 sequence (looked up): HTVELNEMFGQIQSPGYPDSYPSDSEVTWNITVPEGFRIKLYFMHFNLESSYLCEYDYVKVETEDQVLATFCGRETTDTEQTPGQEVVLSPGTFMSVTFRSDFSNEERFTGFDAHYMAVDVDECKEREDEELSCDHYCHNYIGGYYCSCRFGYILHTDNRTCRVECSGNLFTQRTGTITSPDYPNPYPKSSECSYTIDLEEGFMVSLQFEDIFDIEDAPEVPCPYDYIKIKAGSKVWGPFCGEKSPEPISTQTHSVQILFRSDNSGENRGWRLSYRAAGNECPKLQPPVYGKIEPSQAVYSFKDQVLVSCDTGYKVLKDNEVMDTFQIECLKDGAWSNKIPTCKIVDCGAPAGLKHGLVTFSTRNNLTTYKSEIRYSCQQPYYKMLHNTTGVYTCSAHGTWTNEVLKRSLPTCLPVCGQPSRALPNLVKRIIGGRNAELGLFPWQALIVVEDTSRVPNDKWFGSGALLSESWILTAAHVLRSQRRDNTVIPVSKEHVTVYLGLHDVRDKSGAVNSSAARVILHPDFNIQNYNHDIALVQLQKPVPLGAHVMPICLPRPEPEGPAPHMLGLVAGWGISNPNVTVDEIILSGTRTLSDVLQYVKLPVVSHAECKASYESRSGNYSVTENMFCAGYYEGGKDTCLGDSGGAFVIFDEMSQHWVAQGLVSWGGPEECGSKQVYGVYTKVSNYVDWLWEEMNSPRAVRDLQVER

[2] = target: T2, E49A mutant recombinant mouse MASP-3 fused with PA-tag (mouse, UniProt P98064-2 25-733, E49A)
T2 construct: Made from the pCAG-Bsd PA tag-C/WT rmMASP-3 plasmid by site-directed mutagenesis; also called E49A rmMASP-3-PA; mutant rmMASP-3-PA; source: CHO cells, transfected, culture supernatant, purified (anti-PA tag antibody beads); not shown: PA tag (human podoplanin dodecapeptide), C-terminal, kept
T2 sequence (looked up): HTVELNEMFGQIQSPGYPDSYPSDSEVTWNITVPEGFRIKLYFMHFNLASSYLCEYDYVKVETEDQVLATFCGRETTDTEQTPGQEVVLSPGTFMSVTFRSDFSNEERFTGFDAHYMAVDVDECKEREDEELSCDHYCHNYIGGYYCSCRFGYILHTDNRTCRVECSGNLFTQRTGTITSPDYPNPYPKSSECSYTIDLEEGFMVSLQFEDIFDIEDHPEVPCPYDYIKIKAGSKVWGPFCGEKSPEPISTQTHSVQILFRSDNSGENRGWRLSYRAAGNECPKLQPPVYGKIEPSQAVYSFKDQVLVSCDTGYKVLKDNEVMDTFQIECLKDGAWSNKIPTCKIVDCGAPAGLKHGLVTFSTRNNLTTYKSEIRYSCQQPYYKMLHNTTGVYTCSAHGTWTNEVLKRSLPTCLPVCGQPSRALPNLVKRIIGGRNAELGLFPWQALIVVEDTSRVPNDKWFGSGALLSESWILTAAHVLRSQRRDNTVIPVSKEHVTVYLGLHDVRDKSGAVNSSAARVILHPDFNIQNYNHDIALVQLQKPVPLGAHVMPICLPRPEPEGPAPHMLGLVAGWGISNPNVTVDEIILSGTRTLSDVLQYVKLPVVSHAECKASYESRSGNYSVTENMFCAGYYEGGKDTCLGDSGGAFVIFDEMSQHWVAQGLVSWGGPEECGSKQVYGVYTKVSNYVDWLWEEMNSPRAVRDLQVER

[3] = target: T3, wild-type recombinant mouse MASP-3 fused with PA-tag (WT rmMASP-3-PA) (mouse, UniProt P98064-2 25-733)
T3 construct: Secreted from CHO cells, purified as a proenzyme of about 110 kDa; in the circulation partly cleaved into H-chain and L-chain (active form); also called WT-PA; source: CHO cells, transfected, culture supernatant, purified (anti-PA tag antibody beads); not shown: PA tag (human podoplanin dodecapeptide), C-terminal, kept
T3 sequence (looked up): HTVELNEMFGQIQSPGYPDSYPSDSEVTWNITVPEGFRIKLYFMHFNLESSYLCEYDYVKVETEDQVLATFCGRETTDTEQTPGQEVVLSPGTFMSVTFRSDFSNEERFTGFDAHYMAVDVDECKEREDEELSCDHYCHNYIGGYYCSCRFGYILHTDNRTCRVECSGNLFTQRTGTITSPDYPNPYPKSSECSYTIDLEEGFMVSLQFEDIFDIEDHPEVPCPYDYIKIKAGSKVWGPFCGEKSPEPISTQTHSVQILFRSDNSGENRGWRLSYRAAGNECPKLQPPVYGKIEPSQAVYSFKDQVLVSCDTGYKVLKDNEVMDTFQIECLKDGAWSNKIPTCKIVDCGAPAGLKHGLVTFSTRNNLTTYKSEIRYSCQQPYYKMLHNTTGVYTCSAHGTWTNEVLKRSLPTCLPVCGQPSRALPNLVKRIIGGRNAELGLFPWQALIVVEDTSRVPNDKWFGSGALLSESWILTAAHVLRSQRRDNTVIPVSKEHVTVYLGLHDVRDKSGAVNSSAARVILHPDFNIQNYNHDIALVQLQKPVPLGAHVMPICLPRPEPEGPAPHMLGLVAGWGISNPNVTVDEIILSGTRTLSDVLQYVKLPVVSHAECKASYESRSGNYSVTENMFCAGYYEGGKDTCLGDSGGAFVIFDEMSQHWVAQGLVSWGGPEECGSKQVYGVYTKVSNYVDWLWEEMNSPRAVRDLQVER

[4] = target: T4, Y225A mutant recombinant mouse MASP-3 fused with PA-tag (mouse, UniProt P98064-2 25-733, Y225A)
T4 construct: Made from the pCAG-Bsd PA tag-C/WT rmMASP-3 plasmid by site-directed mutagenesis; also called Y225A rmMASP-3-PA; mutant rmMASP-3-PA; source: CHO cells, transfected, culture supernatant, purified (anti-PA tag antibody beads); not shown: PA tag (human podoplanin dodecapeptide), C-terminal, kept
T4 sequence (looked up): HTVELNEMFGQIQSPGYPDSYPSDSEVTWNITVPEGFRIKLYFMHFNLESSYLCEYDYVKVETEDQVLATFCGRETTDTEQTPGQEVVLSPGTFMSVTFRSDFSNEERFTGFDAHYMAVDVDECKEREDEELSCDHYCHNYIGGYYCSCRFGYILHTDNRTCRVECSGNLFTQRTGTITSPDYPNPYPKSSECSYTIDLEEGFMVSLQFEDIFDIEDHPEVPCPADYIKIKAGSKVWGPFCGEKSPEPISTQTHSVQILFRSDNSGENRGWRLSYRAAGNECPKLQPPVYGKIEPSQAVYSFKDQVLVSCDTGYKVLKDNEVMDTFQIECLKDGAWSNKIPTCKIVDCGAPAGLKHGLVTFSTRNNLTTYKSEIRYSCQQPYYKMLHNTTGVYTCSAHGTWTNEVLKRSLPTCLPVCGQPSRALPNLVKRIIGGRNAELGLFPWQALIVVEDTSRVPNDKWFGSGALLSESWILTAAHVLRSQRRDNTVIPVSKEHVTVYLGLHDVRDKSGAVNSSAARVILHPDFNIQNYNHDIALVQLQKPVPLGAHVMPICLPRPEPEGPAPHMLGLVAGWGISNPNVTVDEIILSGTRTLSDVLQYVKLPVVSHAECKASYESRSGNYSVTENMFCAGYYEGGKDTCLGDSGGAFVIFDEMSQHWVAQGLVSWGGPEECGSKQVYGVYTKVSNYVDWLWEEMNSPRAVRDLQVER

binding result [1]: binds
binding result [2]: binds
binding result [3]: binds
binding result [4]: binds
B1: wild-type recombinant mouse MASP-3 with ALFA tag (WT rmMASP-3-ALFA) (enzyme, UniProt P98064-2 25-733, looked up)
chain: HTVELNEMFGQIQSPGYPDSYPSDSEVTWNITVPEGFRIKLYFMHFNLESSYLCEYDYVKVETEDQVLATFCGRETTDTEQTPGQEVVLSPGTFMSVTFRSDFSNEERFTGFDAHYMAVDVDECKEREDEELSCDHYCHNYIGGYYCSCRFGYILHTDNRTCRVECSGNLFTQRTGTITSPDYPNPYPKSSECSYTIDLEEGFMVSLQFEDIFDIEDHPEVPCPYDYIKIKAGSKVWGPFCGEKSPEPISTQTHSVQILFRSDNSGENRGWRLSYRAAGNECPKLQPPVYGKIEPSQAVYSFKDQVLVSCDTGYKVLKDNEVMDTFQIECLKDGAWSNKIPTCKIVDCGAPAGLKHGLVTFSTRNNLTTYKSEIRYSCQQPYYKMLHNTTGVYTCSAHGTWTNEVLKRSLPTCLPVCGQPSRALPNLVKRIIGGRNAELGLFPWQALIVVEDTSRVPNDKWFGSGALLSESWILTAAHVLRSQRRDNTVIPVSKEHVTVYLGLHDVRDKSGAVNSSAARVILHPDFNIQNYNHDIALVQLQKPVPLGAHVMPICLPRPEPEGPAPHMLGLVAGWGISNPNVTVDEIILSGTRTLSDVLQYVKLPVVSHAECKASYESRSGNYSVTENMFCAGYYEGGKDTCLGDSGGAFVIFDEMSQHWVAQGLVSWGGPEECGSKQVYGVYTKVSNYVDWLWEEMNSPRAVRDLQVER
notes: The fragment was put into the pCAG-Bsd PA tag-C vector; also called WT-ALFA; source: CHO cells, transfected, culture supernatant, purified (ALFA Selector ST); not shown: ALFA tag, C-terminal, kept
